{
  "source": "patent US20040097454A1",
  "about": "“Method for modulation of cell phenotype” (University Technology Corporation, priority 1999, published 2004)",
  "key": {"[1]": {"tested_on": "PEPCK gene promoter in NIH 3T3-L1 clonal cell lines", "test": "Truncated CRE-containing PEPCK promoter luciferase reporter (-109 pPC-Luc) in 3T3-L1 clones", "assay_type": "cell-based", "settings": "VP16-CREB clones 2-4 and 9-7; muristerone; versus untreated cells", "protocol": "To test the ability of KCREB and VP16-CREB expression to influence gene transcription, a plasmid containing a truncated, CRE-containing portion of the phosphoenolpyruvate carboxykinase (PEPCK) gene promoter linked to a luciferase reporter gene (−109 pPC-Luc) was transfected into each of the clones. […] Four hours later cell lysates were prepared and luciferase activity measured as an index of transcriptional activity. Levels are shown relative to levels of luciferase activity in untreated, control cells (No Add'n)."}, "3T3-L1 cells": {"tested_on": "3T3-L1 cells", "test": "3T3-L1 cell proliferation (Cell-Titer 96 Aq)", "assay_type": "cell-based", "settings": "muristerone-treated versus control clones, 72 hours", "protocol": "3T3-L1 fibroblasts were passaged and treated with differentiation-inducing agents as previously described (Klemm et al., 1998, J. Biol. Chem., 273:917-923), incorporated herein by reference in its entirety. Plates of 3T3-L1 fibroblasts and adipocytes were grown to 70-80% confluency and transfected with the above-described plasmids with Superfect Reagent (Oiagen, Valencia, Calif.) according to the manufacturer's recommendations. Cells stably transfected with the plasmid, pVgRXR were selected for in conventional medium containing 500 ug/mi Zeocin, and cells stably transfected with pIND-VP16-CREB, pIND-KCREB or pIND-LacZ plasmids were selected for in medium containing 500 ug/ml Geneticin. Large, rapidly growing, well separated colonies were isolated 10 to 12 days after selection was begun with either antibiotic. […] The effect of VP16-CREB and KCREB expression on 3T3-L1 proliferation was assessed by measuring cell number with the Cell-Titer 96 Aq reagent system (Promega Corp., Madison, Wis.).\nTwo possible mechanisms by which CREB could potentiate adipose differentiation would be by increasing cell proliferation related to clonal expansion, or by inhibiting cell growth as a prelude to terminal differentiation. To examine these possibilities, changes in the rate of cell growth in control versus muristerone-treated VP16-CREB and KCREB expressing clones was measured."}, "[2]": {"tested_on": "NIH 3T3-L1 preadipocyte cell lines", "test": "Adipocyte differentiation assay, Oil Red O staining of triacylglycerol", "assay_type": "cell-based", "settings": "muristerone-induced expression alone, no differentiation agents, 10 days", "protocol": "Differentiation assays were performed on cells growing on 8 chamber microscope slides. […] The cells were treated with a differentiation mixture, muristerone, or both. […] Muristerone was added to medium at a final concentration of 10 uM for the entire 10 day differentiation period. After 10 days in culture, the cells were stained with Oil Red 0 to visualize triacylglycerol vesicles as previously described (Klemm et al., 1998, J. Biol. Chem., 273:917-923), and counterstained with hematoxylin to visualize cell morphology. Cells were observed by brightfield microscopy and representative fields, were photographed."}, "[3]": {"tested_on": "PPARγ2 and FABP expression in 3T3-L1 cell lines", "test": "Expression of adipocyte-specific markers PPARγ2 (Western) and FABP (RNA blot)", "assay_type": "cell-based", "settings": "muristerone-treated VP16-CREB cell lines, absence of other differentiation-stimulating agents", "protocol": "In this experiment, control, VP16-CREB and KCREB expressing cells lines were grown and treated as above. On days 0 and 10 of the experiment, whole cell lysates and total RNA were prepared from duplicate wells of cells. Approximately 25 ug of protein in the cell lysates (lysed directly on multiwell slides in SDS gel loading buffer) was separated on 10% polyacrylamide-SDS gels and transferred to nitrocellulose blots. The blots were probed with a polyclonal antibody to PPARγ2, and the specific PPARγ2 band is indicated by an * in the top row of blots (FIG. 3).\nSimilarly, 10 ug of total RNA was separated on 1% denaturing (formaldehyde) agarose gels run at 5 V/cm until the Bromophenol Blue tracking dye had migrated half the length of the gel. The gels were soaked in several changes of distilled water, overnight at 4° C., and stained with ethidium bromide and briefly examined in ultraviolet light to insure RNA integrity and equivalent RNA amounts in each lane. The gels were destained in several changes of 5× sodium chloride/sodium citrate (SSC) buffer. RNA was transferred onto nitrocellulose membranes. The resulting blots were heated to 80° C. under vacuum for two hours. The membranes were blocked for 30 minutes at 70° C., and then a biotin-labeled FABP-specific oligonucleotide probe (250 fg/ml) was added for an additional 30 min. […]"}, "[4]": {"tested_on": "PEPCK, FABP and FAS gene promoters in 3T3-L1 fibroblasts", "test": "Full length PEPCK, FABP and FAS promoter luciferase reporters in 3T3-L1 fibroblasts", "assay_type": "cell-based", "settings": "relative to untreated cells", "protocol": "Control, VP16-CREB or KCREB inducibly expressing 3T3-L1 fibroblasts were transfected with plasmids containing the full length promoters of the PEPCK, FABP or FAS genes linked to luciferase. The cells were cotransfected with the internal control plasmid, pRSV-pGal. […] Cell lysates were then prepared, and luciferase activity measured as an index of transcriptional activity. Levels of transcription are shown relative to levels measured in untreated cells for each promoter tested, and were corrected for transfection efficiency."}, "[5]": {"tested_on": "CREluc reporter in HEK cells", "test": "CREluc reporter in HEK cells transfected with CREB constructs", "assay_type": "cell-based", "settings": "transient transfection of adenoviral expression plasmids", "description": "CDNA for KCREB, CREB DIEDML and VP16CREB were cloned into adenoviral expression vectors as described previously herein. The plasmids were transiently transfected into HEK cells to assess their impact upon a cotransfected CREluc reporter construct. […] Transfected cells were also lysed and CREB protein content and Flag content assayed Western analysis. All proteins were highly expressed in HEK cells (data not shown)."}, "BASMC": {"tested_on": "BASMC", "test": "Transient VP16CREB transfection in BASMC, phenotype", "assay_type": "cell-based, bovine", "settings": "preliminary transient transfections", "description": "It is expected that dominant negative CREB and sense ICER will lead to SMC phenotypic modulation. If the dose delivered overwhelms the cells, apoptosis may occur. Assays to confirm or deny the induction of apoptosis are readily available in the lab in conjunction with the neurodegeneration REAP. Overexpression of WT CREB is likely to promote a differentiated phenotype. The present inventors have already provided data above showing arrest of cell cycle and decreased migration with CREB overexpression. The constitutively active CREB could induce ICER and promote dedifferentiation, promote proliferation by driving immediate early genes, or maintain the mature phenotype. Adenoviral overexpression of constitutively active signaling elements can lead to non-physiological protein interactions. […] The dominant negative CREB and ICER overexpression experiments will be the most informative for the question of how CREB down-regulation impacts phenotype."}},
  "data": [
    {"molecule": "VP16-CREB: constitutively active fusion protein: VP16 transactivation domain (aa 412-490) linked to CREB DNA binding domain (aa 217-327), SEQ ID NO:6 (protein, listed as Homo sapiens) MAPKKKRKVPGVPSSNCIDTAPPTDVSLGDELHLDGEDVAMAHADAHDDFDLDMLGDGDSPGPGFTPHDSAPYGALDMADFEFEQMFTDALGIDEYGGIDWILVPSNQVVVQAASGDVQTYQIRTAPTSTIAPGVVMASSPALPTQPAEEAARKREVRLMKNREAARECRRKKKEYVKCLENRVAVLENQNKTLIEELKALKDLYCHKSZ", "values": [
      {"measurement": "luciferase production from the PEPCK promoter fragment, stimulation", "setting": "[1]", "value": "3.5 to 4", "unit": "fold"},
      {"measurement": "rate of cell proliferation", "setting": "3T3-L1 cells", "value": "No significant differences in the rate of cell proliferation"},
      {"measurement": "triacylglycerol accumulation and cell morphology (Oil Red O)", "setting": "[2]", "value": "sufficient to induce triacylglycerol accumulation and rounded cell morphology"},
      {"measurement": "PPARγ2 and FABP expression, day 10", "setting": "[3]", "value": "easily detected"},
      {"measurement": "transcription (luciferase) from full-length PEPCK, FABP and FAS promoters", "setting": "[4]", "value": "stimulated"},
      {"measurement": "CREluc reporter luciferase expression", "setting": "[5]", "value": "strongly drive the reporter"},
      {"measurement": "SMC phenotype", "setting": "BASMC", "value": "phenotypic changes consistent with increased differentiation"}
    ]}
  ]
}
